Results as given in FireProtDB (doi:10.1016/0141-8130(95)93517-2).

Settings: Armoracia rusticana, CD, reversible: yes, whole UniProt chain shown
[1] = pH 3.2, 22 °C, GdnHCl, glycine 50 mM
[2] = pH 3.2, 22 °C, Urea, glycine 50 mM
[3] = pH 3.2, 25 °C, GdnHCl, glycine 50 mM
[4] = pH 3.2, 25 °C, Urea, glycine 50 mM
[5] = pH 3.2, 27 °C, GdnHCl, glycine 50 mM
[6] = pH 3.2, 27 °C, Urea, glycine 50 mM
[7] = pH 3.2, 30 °C, GdnHCl, glycine 50 mM
[8] = pH 3.2, 30 °C, Urea, glycine 50 mM
[9] = pH 6.4, 22 °C, GdnHCl, sodium phosphate 2.5 mM
[10] = pH 6.4, 22 °C, Urea, sodium phosphate 2.5 mM
[11] = pH 6.4, 25 °C, GdnHCl, sodium phosphate 2.5 mM
[12] = pH 6.4, 25 °C, Urea, sodium phosphate 2.5 mM
[13] = pH 6.4, 27 °C, GdnHCl, sodium phosphate 2.5 mM
[14] = pH 6.4, 27 °C, Urea, sodium phosphate 2.5 mM
[15] = pH 6.4, 30 °C, GdnHCl, sodium phosphate 2.5 mM
[16] = pH 6.4, 30 °C, Urea, sodium phosphate 2.5 mM
[17] = pH 10, 22 °C, GdnHCl, glycine 50 mM
[18] = pH 10, 22 °C, Urea, glycine 50 mM
[19] = pH 10, 25 °C, GdnHCl, glycine 50 mM
[20] = pH 10, 25 °C, Urea, glycine 50 mM
[21] = pH 10, 27 °C, GdnHCl, glycine 50 mM
[22] = pH 10, 27 °C, Urea, glycine 50 mM
[23] = pH 10, 30 °C, GdnHCl, glycine 50 mM
[24] = pH 10, 30 °C, Urea, glycine 50 mM

B1: Peroxidase C2 wild type, P17179 (protein)
chain: MHSSSSLIKLGFLLLLLNVSLSHAQLSPSFYDKTCPQVFDIATNTIKTALRSDPRIAASILRLHFHDCFVNGCDASILLDNTTSFRTEKDAFGNARSARGFDVIDTMKAAVEKACPKTVSCADLLAIAAQKSVVLAGGPSWKVPSGRRDSLRGFMDLANDNLPGPSSTLQVLKDKFRNVGLDRPSDLVALSGGHTFGKNQCQFIMDRLYNFSNSGKPDPTLDKSYLSTLRKQCPRNGNLSVLVDFDLRTPTIFDNKYYVNLKENKGLIQSDQELFSSPDASDTIPLVRAYADGQGKFFDAFVEAMIRMGNLSPSTGKQGEIRLNCRVVNSKPKIMDVVDTNDFASSI
For B1, the denaturant m value [1] was 2.86 kcal/mol/M, the unfolding free energy [1] was 6.75 kcal/mol and the denaturant m value [2] was 1.23 kcal/mol/M. For the same protein, the unfolding free energy [2] was 6.42 kcal/mol, the denaturant m value [3] was 2.94 kcal/mol/M and the unfolding free energy [3] was 6.25 kcal/mol. The denaturant m value [4] was 1.26 kcal/mol/M, the unfolding free energy [4] was 5.94 kcal/mol and the denaturant m value [5] was 2.99 kcal/mol/M. The unfolding free energy [5] was 5.68 kcal/mol, the denaturant m value [6] was 1.31 kcal/mol/M and the unfolding free energy [6] was 5.63 kcal/mol. The denaturant m value [7] was 3.2 kcal/mol/M, the unfolding free energy [7] was 4.98 kcal/mol and the denaturant m value [8] was 1.37 kcal/mol/M. The unfolding free energy [8] was 5.18 kcal/mol, the denaturant m value [9] was 4.75 kcal/mol/M and the unfolding free energy [9] was 6.68 kcal/mol. It also gave a denaturant m value [10] of 2.02 kcal/mol/M, an unfolding free energy [10] of 6.45 kcal/mol and a denaturant m value [11] of 4.9 kcal/mol/M. The unfolding free energy [11] was 6.38 kcal/mol, the denaturant m value [12] was 2.06 kcal/mol/M and the unfolding free energy [12] was 5.94 kcal/mol. It also gave a denaturant m value [13] of 5.08 kcal/mol/M, an unfolding free energy [13] of 6.22 kcal/mol and a denaturant m value [14] of 2.11 kcal/mol/M. It also gave an unfolding free energy [14] of 5.87 kcal/mol, a denaturant m value [15] of 5.16 kcal/mol/M and an unfolding free energy [15] of 5.62 kcal/mol. The denaturant m value [16] was 2.18 kcal/mol/M, the unfolding free energy [16] was 5.69 kcal/mol and the denaturant m value [17] was 2.85 kcal/mol/M. The unfolding free energy [17] was 6.7 kcal/mol, the denaturant m value [18] was 1.28 kcal/mol/M and the unfolding free energy [18] was 6.71 kcal/mol. The denaturant m value [19] was 2.99 kcal/mol/M, the unfolding free energy [19] was 6.4 kcal/mol and the denaturant m value [20] was 1.3 kcal/mol/M. The unfolding free energy [20] was 6.36 kcal/mol, the denaturant m value [21] was 3.11 kcal/mol/M and the unfolding free energy [21] was 5.87 kcal/mol. The denaturant m value [22] was 1.37 kcal/mol/M, the unfolding free energy [22] was 6.04 kcal/mol and the denaturant m value [23] was 3.17 kcal/mol/M. For the same protein, the unfolding free energy [23] was 5.23 kcal/mol, the denaturant m value [24] was 1.4 kcal/mol/M and the unfolding free energy [24] was 5.54 kcal/mol.
